From patent US7550425B2, “Diuretic peptide conjugates” (Zealand Pharma A/S, priority 2000, dated 2009) come the findings set out here.

Peptide text beside a SMILES is read from it.

The target of assay [1] is T1, hORL1 receptor (Homo sapiens, UniProt P41146). Put plainly: Efficacy: inhibition of forskolin-induced cAMP formation, hORL1 in CHO cells. The class given is cell-based. Also on record: expressed in transfected cells; host or cells: CHO. An excerpt:
The ORL1 receptor is negatively coupled to cAMP and thus the effect of ORL1 agonists are detected as an inhibition of forskolin-incuced cAMP formation. Six compounds of the invention have been tested for efficacy on hORL1 receptor expressed in CHO cells.

Assay [2] deals with T1, hORL1 receptor. The assay can be described thus: Binding to human ORL1 receptor expressed in CHO cells. Set-up: expressed in transfected cells; host or cells: CHO.
The target of assay [3] is T2, human ORL1 receptor (human, UniProt P41146 1-370). The assay can be described thus: cell-based or functional assay.
For assay [4], the target named is T2, human ORL1 receptor. Put plainly: cell-based or functional assay. The source holds these as a separate data set.
Assay [5] deals with T2, human ORL1 receptor. Put plainly: binding to hORL1 receptor expressed in CHO cells, one experiment.
Assay [6] has as its target T2, human ORL1 receptor. Put plainly: displacement of [3H]-labeled nociceptin, HEK293 cells transfected with the human ORL1 receptor. On the technique in general: Loss of bound radioactivity is the signal in a displacement assay; it reports binding, not function.

T1 sequence (P41146 whole entry): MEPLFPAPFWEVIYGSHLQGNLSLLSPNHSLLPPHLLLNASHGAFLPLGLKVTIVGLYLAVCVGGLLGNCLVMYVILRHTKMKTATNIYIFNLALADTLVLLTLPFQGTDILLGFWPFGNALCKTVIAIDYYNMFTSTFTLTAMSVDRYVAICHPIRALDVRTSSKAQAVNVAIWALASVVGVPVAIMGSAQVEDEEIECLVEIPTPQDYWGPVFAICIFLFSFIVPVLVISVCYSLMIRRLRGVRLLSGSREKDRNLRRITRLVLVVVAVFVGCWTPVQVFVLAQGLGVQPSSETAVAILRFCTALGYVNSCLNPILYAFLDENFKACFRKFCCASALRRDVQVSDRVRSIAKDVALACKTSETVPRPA
T2 sequence (P41146 whole entry): as above

Consider `CC(=O)N[C@H](CCCNC(=N)N)C(=O)N[C@H](Cc1ccc(O)cc1)C(=O)N[C@H](Cc1ccc(O)cc1)C(=O)N[C@H](CCCNC(=N)N)C(=O)N[C@H](Cc1c[nH]c2ccccc12)C(=O)N[C@H](CCCCN)C(=O)N[C@H](CCCCN)C(=O)N[C@H](CCCCN)C(=O)N[C@H](CCCCN)C(=O)N[C@H](CCCCN)C(=O)N[C@H](CCCCN)C(=O)N[C@H](CCCCN)C(N)=O` [Compound 8, Ac-RYYRWKKKKKKK-NH2 (all D)] (HELM PEPTIDE1{[ac].[dR].[dY].[dY].[dR].[dW].[dK].[dK].[dK].[dK].[dK].[dK].[dK].[am]}$$$$V2.0), for which, at hORL1 receptor [1], it took 59 nM to reach a half-maximal effect (EC50). Further, the IC50 (usually the concentration that gives 50% inhibition) at hORL1 receptor [2] was found to be 78 nM.

B1: Compound 1 Ac-Arg-Tyr-Tyr-Arg-Trp-Lys-Lys-Lys-Lys-Lys-Lys-Lys-NH2 (peptide)
peptide: Ac-RYYRWKKKKKKK-NH2
modifications: also: trifluoroacetate salt
notes: Synthetic peptide conjugate; the primary product is the trifluoroacetate salt; also called Compound I
For the molecule B1, in the assay with human ORL1 receptor [3], the “inhibition of forskoline-induced formation of cAMP, EC50” value was determined as 0.54 nM and the “inhibition of forskoline-induced formation of cAMP, relative maximum relative to nociceptin” value amounted to 92%. Further, the “Efficacy EC50 (nM), inhibition of forskolin-induced cAMP formation” value with human ORL1 receptor [4] worked out at 0.58 nM. In addition, the 50% inhibitory concentration (IC50) with human ORL1 receptor [5] turned out to be 0.32 nM. For the same molecule, the inhibition constant Ki (usually a dissociation constant, usually derived from enzyme kinetics or from competition with a known ligand) with human ORL1 receptor [6] is 0.26 nM.
